Measurements reported in a protein production outcome set (Wang et al. 2014).

Assay: label from the status in PepcDB records
With “MDSYFLFFIILTSIFIVPQILKRFNVPTITATMLAGIIIGPFGLNLIQTSSTLDTFASFGVIFLMFLAGMEVDNETLKDEFKNSLVLSLFSMLIPAIGGYFIGQYFGLDFIGSLLYAVIFSSHSVGIVYALMDELGLIKSRFGTTVISASVVIDLISLIVISILIKMGGSGINSDIIPFIVLIVAYIIALLIIIPLISKLILNELQKFHVQKIHFILLIILISIIVGEHIGIHPIIGAFIIGIAVSEELTKEEHDKILNENLNAIGYGIFIPLFFLNLGMTTDISVIFNFDNLSLIFVSVVSLISLKIISGYFSLRILDYNKLKSFCGGLLTVPSLTASLVGATLGRDLGILPEKFFVAVVVIALLTSTVAPIYVKNLVSKNYDKLKLN” the protein production was “failed”. For “MDTAGIRLTPKEIVSKLNEYIVGQNDAKRKVAIALRNRYRRSLLDEESKQEISPKNILMIGPTGVGKTEIARRMAKVVGAPFIKVEATKFTEVGYVGRDVESMVRDLVDVSVRLVKAQKKSLVQDEATAKANEKLVKLLVPSMKKKASQTNNPLESLFGGAIPNFGQNNEDEEEPPTEEIKTKRSEIKRQLEEGKLEKEKVRIKVEQDPGALGMLGTNQNQQMQEMMNQLMPKKKVEREVAVETARKILADSYADELIDQESANQEALELAEQMGIIFIDEIDKVATNNHNSGQDVSRQGVQRDILPILEGSVIQTKYGTVNTEHMLFIGAGAFHVSKPSDLIPELQGRFPIRVELDSLSVEDFVRILTEPKLSLIKQYEALLQTEEVTVNFTDEAITRLAEIAYQVNQDTDNIGARRLHTILEKMLEDLSFEAPSMPNAVVDITPQYVDDKLKSISTNKDLSAFIL”, the protein production was “failed”. For “MDTAIILGLLVAVFYGVGTFFAKIVCEKNPLFQWIVVNIVGIILCLIILLKYKNIIITDQKILTYAIISAVLVVIGSLLLYYALYKGKASIVVPLSSIGPAITVALSILFLKETLTLPQMIGIVLIIIGIILLSISN”, the protein production was “failed”. With “MDTFDINTEINEDEINVEKIMEKIRENIRKQKGAGIFPEKIHGDLQQGSLLEVTPGESNIQRDLDYINSNWDIQNNSYFISSHRPFVGKFLVRGRDLVHGEIRRYVDPVFWKQTEFNGSTVRLLNDTAGKFIYYNNKIEQLQSEMDSKIEQLQSEMDSKIEHLRPELGNKIERLRSEFENQIEQLKSEIDDSIKAEVNSIISLMNLDIENKAWLASVLDGKIEKGYKNKKTGTPDPGDLDINYFRFEEQFRGSREDIKQRQSCFMNYFLGCSNVLDIGCGRGEFLELASEHGIGAKGVDIDDTMVDFCLSKGLNVVKQEAISYLESVDDKSLDGIFIDQVVEHLEPDYLIKLLKLCFQKLKYGYYIFAETVNPLSFVSFANFYIDMTHKKPIHPETLKFLLTSAGFRDVDTMFFSPVSEKARLQKVPINNDMEEWVKNYLDIYNHNLEKLNGILYGAQDYAVIGKK” the protein production was “failed”. In the case of “MDTNNNIEKEILALVKQNPKVSLIEYENYFSQLKYNPNASKSDIAFFYAPNQVLCTTITAKYGALLKEILSQNKVGMHLAHSVDVRIEVAPKIQINAQSNINYKAIKTSVKDSYTFENFVVGSCNNTVYEIAKKVAQSDTPPYNPVLFYGGTGLGKTHILNAIGNHALEKHKKVVLVTSEDFLTDFLKHLDNKTMDSFKAKYRHCDFFLLDDAQFLQGKPKLEEEFFHTFNELHANSKQIVLISDRSPKNIAGLEDRLKSRFEWGITAKVMPPDLETKLSIVKQKCQLNQITLPEEVMEYIAQHISDNIRQMEGAIIKISVNANLMNASIDLNLAKTVLEDLQKDHAEGSSLENILLAVAQSLNLKSSEIKVSSRQKNVALARKLVVYFARLYTPNPTLSLAQFLDLKDHSSISKMYSGVKKMLEEEKSPFVLSLREEIKNRLNELNDKKTAFNSSE”, the protein production is reported as “failed”. In the case of “MDTRKLLLTAQEISRMKGEHKVHFLNPGAVRVNKSLGDAVGLRHMGIHLIQIEPGKESTEYHLHHYEEEAVYVLSGKGTLTMENDQYPIAPGDFVGFPCHAAAHSISNDGTETLVCLVIGQRLDQDVVDYPNQHKRLYRNNGEWNLVDMADIRVLREPTQK”, the protein production is reported as “not failed”. In the case of “MDTSNLDTPMRMAAFDRVRGLNEVHDHLTATELQPGFLFRGERIPLVNPQRGIFKPHQMRFLLSIKTVFPKPGGKVWYDDQRDIQRQIFYGDEAIDYAFMGKNPDAADNRWLKEAYENQIPVVYFLGIAPGRYQALLPTFISGWDGQALKARITFGPNPEKLAPPSDSAERRYALRTVKQRLHQATFREAVISAYDGRCAFSGLPEPLLLDAAHIIADKDERLGHPVVTNGIPLSKIHHAAFDAHLIGIDPDFRLHVSDRLLGQNDGPMLEALKQLNGRNIRLPGRAKDHPDRDRLAMRFERYKSVA”, the protein production is reported as “failed”.
